From IntAct's records for PubMed 16278825

B1: Ras-related protein Rab-27A (Homo sapiens), P51159 (parent)
chain: MSDGDYDYLIKFLALGDSGVGKTSVLYQYTDGKFNSKFITTVGIDFREKRVVYRASGPDGATGRGQRIHLQLWDTAGQERFRSLTTAFFRDAMGFLLLFDLTNEQSFLNVRNWISQLQMHAYCENPDIVLCGNKSDLEDQRVVKEEEAIALAEKYGIPYFETSAANGTNISQAIEMLLDLIMKRMERCVDKSWIPEGVVRSNGHASTDQLSEEKEKGACGC
partner: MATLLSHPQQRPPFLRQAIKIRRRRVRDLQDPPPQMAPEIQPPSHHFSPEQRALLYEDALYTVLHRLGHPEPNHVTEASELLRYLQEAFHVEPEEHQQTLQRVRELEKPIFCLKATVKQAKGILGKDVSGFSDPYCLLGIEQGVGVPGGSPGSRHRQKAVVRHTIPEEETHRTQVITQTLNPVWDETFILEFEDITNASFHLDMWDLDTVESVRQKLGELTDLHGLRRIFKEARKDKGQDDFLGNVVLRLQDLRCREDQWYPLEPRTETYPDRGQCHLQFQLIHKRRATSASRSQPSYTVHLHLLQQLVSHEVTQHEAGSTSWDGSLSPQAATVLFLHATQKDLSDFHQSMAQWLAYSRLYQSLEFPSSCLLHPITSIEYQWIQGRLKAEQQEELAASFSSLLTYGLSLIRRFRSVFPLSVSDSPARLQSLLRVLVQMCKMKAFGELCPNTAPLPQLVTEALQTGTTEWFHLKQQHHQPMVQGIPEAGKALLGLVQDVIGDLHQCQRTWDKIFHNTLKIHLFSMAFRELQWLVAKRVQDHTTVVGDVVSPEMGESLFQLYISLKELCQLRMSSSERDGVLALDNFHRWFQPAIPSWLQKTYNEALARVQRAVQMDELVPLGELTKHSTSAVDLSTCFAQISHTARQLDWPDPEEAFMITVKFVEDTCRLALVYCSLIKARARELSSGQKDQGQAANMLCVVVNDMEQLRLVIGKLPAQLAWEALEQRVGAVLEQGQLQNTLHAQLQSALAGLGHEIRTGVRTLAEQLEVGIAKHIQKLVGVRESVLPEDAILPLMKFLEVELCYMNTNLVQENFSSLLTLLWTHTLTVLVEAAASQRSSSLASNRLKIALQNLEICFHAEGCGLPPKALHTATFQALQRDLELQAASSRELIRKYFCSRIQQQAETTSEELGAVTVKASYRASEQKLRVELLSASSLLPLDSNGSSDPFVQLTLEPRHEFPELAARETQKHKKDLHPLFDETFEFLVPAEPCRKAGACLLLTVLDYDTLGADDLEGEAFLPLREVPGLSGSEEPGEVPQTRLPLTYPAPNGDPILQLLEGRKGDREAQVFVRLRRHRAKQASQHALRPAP
B2: Protein unc-13 homolog D (Homo sapiens), Q70J99 (parent)
chain: B1 partner

Variants of: B1
Conditions: with un13d_human UNC13D

Variant | effect of a mutation on the interaction
MSDGDYDYLIKFLALGDSGVGKNSVLYQYTDGKFNSKFITTVGIDFREKRVVYRASGPDGATGRGQRIHLQLWDTAGQERFRSLTTAFFRDAMGFLLLFDLTNEQSFLNVRNWISQLQMHAYCENPDIVLCGNKSDLEDQRVVKEEEAIALAEKYGIPYFETSAANGTNISQAIEMLLDLIMKRMERCVDKSWIPEGVVRSNGHASTDQLSEEKEKGACGC [T23N] | disrupting interaction strength
MSDGDYDYLIKFLALGDSGVGKTSVLYQYTDGKFNSKFITTVGIDFREKRVVYRASGPDGATGRGQRIHLQLWDTAGLERFRSLTTAFFRDAMGFLLLFDLTNEQSFLNVRNWISQLQMHAYCENPDIVLCGNKSDLEDQRVVKEEEAIALAEKYGIPYFETSAANGTNISQAIEMLLDLIMKRMERCVDKSWIPEGVVRSNGHASTDQLSEEKEKGACGC [Q78L] | with no effect
MSDGDYDYLIKFLALGDSGVGKTSVLYQYTDGKFNSKFITTVGIDFREKRVVYRASGPDGATGRGQRIHLQLWDTAGQERFRSLTTPFFRDAMGFLLLFDLTNEQSFLNVRNWISQLQMHAYCENPDIVLCGNKSDLEDQRVVKEEEAIALAEKYGIPYFETSAANGTNISQAIEMLLDLIMKRMERCVDKSWIPEGVVRSNGHASTDQLSEEKEKGACGC [A87P] | disrupting interaction strength

Variants of: B2
Conditions: with rb27a_human RAB27A

Variant | effect of a mutation on the interaction
L403P | disrupting interaction strength
